Data published in PMC8584152, “The Bacterial Amyloids Phenol Soluble Modulins from Staphylococcus aureus Catalyze Alpha-Synuclein Aggregation” (International Journal of Molecular Sciences, 2021).

B1: PSMα3 sequence FVAKLFKFFK (10-residue array peptide) (peptide)
peptide: FVAKLFKFFK
notes: source: 10-residue peptide immobilized on a microarray chip; maker not clearly stated
B2: PSMα2 sequence IIAGIIKFIK (10-residue array peptide) (peptide)
peptide: IIAGIIKFIK
notes: as for B1
B3: PSMα2 sequence GIIKFIKGLI (10-residue array peptide) (peptide)
peptide: GIIKFIKGLI
notes: as for B1

Target: Human wildtype α-syn, Alexa-fluor488-labelled (human, UniProt P37840 1-140)
Experiment: peptide or protein array
Details: both partners purified

Binder	binding result
B1	binds
B2	binds
B3	binds
